Experimental data reported in IntAct's records for PubMed 22796944.

B1: Cell division control protein 73 (Saccharomyces cerevisiae), Q06697 (parent)
chain: MANSLDRLREHLKNGDKLVLKNNEGQSTDDITKATMVETLSSDGSTQDSFPLNEETEIEIDGSLVQLRIIVHCWMNKDSSAADYLADCQNKQLTNVSFLQRTDLINWLSGNTESSQYLKAPGQKGETSDKVDIENKTLAGELSTVKSTTSASLENDSEVSDPVVVETMKHERILVDHNSALRGAKPINFGYLIKDAELKLVQSIKGSLRGSKLPPGHKGAHGRISKTNGSSGGPRKDPIILIPSAASSILTVANIKQFLLESKYVNPRNLPSVPNGLVNIEKNFERISRPIRFIIVDNTRMFTKPEYWDRVVAIFTTGHTWQFNNYQWNSPQELFQRCKGYYFHFAGDSVPQHVQQWNVEKVELDKNKRFKDVEVVRYFWHSLEKELISRGYR
partner: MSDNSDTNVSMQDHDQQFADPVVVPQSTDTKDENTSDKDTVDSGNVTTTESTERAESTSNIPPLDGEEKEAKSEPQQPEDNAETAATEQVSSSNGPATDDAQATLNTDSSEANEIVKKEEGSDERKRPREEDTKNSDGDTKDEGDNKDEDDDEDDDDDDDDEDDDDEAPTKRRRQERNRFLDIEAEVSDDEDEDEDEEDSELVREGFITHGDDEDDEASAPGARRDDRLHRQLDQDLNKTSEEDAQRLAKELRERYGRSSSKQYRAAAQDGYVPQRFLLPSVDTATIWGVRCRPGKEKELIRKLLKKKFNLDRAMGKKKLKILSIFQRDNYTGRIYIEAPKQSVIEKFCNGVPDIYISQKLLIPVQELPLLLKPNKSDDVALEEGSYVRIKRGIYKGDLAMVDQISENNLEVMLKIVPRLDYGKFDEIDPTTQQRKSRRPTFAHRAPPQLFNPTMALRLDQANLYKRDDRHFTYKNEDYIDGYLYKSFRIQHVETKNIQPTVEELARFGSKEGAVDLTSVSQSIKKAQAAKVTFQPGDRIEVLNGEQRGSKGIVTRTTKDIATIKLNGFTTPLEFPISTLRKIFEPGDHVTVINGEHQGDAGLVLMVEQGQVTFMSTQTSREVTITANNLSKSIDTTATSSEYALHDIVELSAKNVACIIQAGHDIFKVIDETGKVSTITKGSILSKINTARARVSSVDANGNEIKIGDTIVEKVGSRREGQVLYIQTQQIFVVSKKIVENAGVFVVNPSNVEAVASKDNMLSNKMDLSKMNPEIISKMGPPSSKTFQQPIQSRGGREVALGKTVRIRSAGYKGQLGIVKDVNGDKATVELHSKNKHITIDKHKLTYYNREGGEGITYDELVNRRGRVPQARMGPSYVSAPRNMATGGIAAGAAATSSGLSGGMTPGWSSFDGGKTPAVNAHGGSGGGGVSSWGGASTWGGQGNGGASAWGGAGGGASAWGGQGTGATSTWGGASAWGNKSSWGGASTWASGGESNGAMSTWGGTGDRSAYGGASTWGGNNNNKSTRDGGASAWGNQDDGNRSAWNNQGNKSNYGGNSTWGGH
B2: Transcription elongation factor SPT5 (Saccharomyces cerevisiae), P27692 (parent)
chain: B1 partner
B3: Cell division control protein 73 (Saccharomyces cerevisiae), Q06697 (parent)
chain: B1 chain

Variants of: B1
Details: with spt5_yeast SPT5, P27692

Row | effect of a mutation on the interaction | Variant
1 | disrupting interaction | MANSLDRLREHLKNGDKLVLKNNEGQSTDDITKATMVETLSSDGSTQDSFPLNEETEIEIDGSLVQLRIIVHCWMNKDSSAADYLADCQNKQLTNVSFLQRTDLINWLSGNTESSQYLKAPGQKGETSDKVDIENKTLAGELSTVKSTTSASLENDSEVSDPVVVETMKHERILVDHNSALRGAKPINFGYLIKDAELKLVQSIKGSLRGSKLPPGHKGAHGRISKTNGSSGGPRKDPIILIPSAASSILTVANIKQFLLESKYVNPRNLPSVPNGLVNIEKNFERISRPIRFIIVDNTRMFTKPEYWDRVVAIFTTGHTWQFNNYQWNSPQELFQRCKGYYFHFAGDSVPQHVQQANVEKVELDKNKRFKDVEVVRYFWHSLEKELISRGYR [W357A]
2 | disrupting interaction | MANSLDRLREHLKNGDKLVLKNNEGQSTDDITKATMVETLSSDGSTQDSFPLNEETEIEIDGSLVQLRIIVHCWMNKDSSAADYLADCQNKQLTNVSFLQRTDLINWLSGNTESSQYLKAPGQKGETSDKVDIENKTLAGELSTVKSTTSASLENDSEVSDPVVVETMKHERILVDHNSALRGAKPINFGYLIKDAELKLVQSIKGSLRGSKLPPGHKGAHGRISKTNGSSGGPRKDPIILIPSAASSILTVANIKQFLLESKYVNPRNLPSVPNGLVNIEKNFERISRPIRFIIVDNTRMFTKPEYWDRVVAIFTTGHTWQFNNYQWNSPQELFQRCKGYYFHFAGDSVPQHVQQWNVEKVELDKNKRFKDVEVVRYFAHSLEKELISRGYR [W380A]

Variants of: B2
Details: with rtf1_yeast RTF1, P53064
rtf1_yeast RTF1, P53064, sequence (P53064 whole entry): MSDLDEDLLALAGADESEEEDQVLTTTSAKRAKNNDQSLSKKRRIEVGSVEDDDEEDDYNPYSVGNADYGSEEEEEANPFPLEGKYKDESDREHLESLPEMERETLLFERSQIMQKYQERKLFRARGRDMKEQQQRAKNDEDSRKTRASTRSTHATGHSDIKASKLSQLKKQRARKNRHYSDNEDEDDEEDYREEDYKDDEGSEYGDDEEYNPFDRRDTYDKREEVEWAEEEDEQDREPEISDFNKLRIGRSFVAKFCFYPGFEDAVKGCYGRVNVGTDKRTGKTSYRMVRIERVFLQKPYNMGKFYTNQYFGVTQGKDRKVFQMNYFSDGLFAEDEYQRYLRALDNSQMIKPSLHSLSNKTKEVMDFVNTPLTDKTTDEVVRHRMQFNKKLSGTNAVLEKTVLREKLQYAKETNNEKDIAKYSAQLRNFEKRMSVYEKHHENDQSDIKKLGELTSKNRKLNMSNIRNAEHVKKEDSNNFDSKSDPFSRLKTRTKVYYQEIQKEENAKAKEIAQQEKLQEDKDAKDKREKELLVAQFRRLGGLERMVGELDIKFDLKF

Row | effect of a mutation on the interaction | Variant
3 | decreasing interaction | M1D

Variants of: B3
Details: with rpb1_yeast RPO21, P04050
rpb1_yeast RPO21, P04050, sequence (P04050 whole entry): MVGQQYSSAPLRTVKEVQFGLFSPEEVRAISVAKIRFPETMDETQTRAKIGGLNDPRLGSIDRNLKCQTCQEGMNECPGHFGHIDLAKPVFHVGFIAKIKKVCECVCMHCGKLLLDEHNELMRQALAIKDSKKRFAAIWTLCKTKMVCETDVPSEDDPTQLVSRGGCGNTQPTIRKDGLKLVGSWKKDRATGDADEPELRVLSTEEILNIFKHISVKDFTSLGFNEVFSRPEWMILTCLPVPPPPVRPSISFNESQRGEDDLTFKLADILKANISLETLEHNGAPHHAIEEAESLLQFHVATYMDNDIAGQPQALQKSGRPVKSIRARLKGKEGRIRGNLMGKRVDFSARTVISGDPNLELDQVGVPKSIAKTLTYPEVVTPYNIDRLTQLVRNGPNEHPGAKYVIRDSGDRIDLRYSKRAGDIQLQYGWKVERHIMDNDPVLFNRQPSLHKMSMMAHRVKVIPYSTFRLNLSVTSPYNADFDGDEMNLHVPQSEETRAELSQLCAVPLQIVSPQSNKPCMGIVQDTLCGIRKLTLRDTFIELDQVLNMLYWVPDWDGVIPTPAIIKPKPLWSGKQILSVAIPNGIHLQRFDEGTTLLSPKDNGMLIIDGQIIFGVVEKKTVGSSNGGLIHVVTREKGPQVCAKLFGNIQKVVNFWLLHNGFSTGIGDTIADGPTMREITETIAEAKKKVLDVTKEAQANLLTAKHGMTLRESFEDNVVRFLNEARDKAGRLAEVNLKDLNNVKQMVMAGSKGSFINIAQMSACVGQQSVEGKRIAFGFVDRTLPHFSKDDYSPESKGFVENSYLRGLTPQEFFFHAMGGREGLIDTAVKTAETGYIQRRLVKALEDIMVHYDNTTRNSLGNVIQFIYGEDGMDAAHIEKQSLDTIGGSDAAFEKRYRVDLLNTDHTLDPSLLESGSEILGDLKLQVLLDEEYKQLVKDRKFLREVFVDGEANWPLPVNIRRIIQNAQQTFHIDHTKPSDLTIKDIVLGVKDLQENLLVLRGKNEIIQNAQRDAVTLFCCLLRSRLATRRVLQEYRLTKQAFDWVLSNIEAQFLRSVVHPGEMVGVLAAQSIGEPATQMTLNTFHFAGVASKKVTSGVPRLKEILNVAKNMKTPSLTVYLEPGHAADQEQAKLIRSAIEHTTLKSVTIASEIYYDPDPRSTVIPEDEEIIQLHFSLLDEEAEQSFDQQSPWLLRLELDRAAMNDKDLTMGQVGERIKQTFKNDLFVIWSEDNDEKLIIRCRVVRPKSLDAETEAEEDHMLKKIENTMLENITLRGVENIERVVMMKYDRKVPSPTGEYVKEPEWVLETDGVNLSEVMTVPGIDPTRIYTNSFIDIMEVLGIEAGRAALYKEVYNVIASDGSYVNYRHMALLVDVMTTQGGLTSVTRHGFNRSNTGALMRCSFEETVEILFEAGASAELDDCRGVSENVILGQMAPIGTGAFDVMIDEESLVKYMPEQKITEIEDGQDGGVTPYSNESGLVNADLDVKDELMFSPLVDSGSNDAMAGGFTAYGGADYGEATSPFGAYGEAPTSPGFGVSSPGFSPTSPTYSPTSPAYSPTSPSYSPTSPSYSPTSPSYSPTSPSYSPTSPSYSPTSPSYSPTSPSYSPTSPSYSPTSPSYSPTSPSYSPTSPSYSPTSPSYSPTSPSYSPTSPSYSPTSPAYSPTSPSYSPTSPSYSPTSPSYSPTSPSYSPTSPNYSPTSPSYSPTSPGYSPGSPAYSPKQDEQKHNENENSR

Row | effect of a mutation on the interaction | Variant
4 | disrupting interaction | MANSLDRLREHLKNGDKLVLKNNEGQSTDDITKATMVETLSSDGSTQDSFPLNEETEIEIDGSLVQLRIIVHCWMNKDSSAADYLADCQNKQLTNVSFLQRTDLINWLSGNTESSQYLKAPGQKGETSDKVDIENKTLAGELSTVKSTTSASLENDSEVSDPVVVETMKHERILVDHNSALRGAKPINFGYLIKDAELKLVQSIKGSLRGSKLPPGHKGAHGRISKTNGSSGGPRKDPIILIPSAASSILTVANIKQFLLESKYVNPRNLPSVPNGLVNIEKNFERISRPIRFIIVDNTRMFTKPEYWDRVVAIFTTGHTWQFNNYQWNSPQELFQRCKGYYFHFAGDSVPQHVQQWNVEKVELDKNKRFKDVEVVRYFAHSLEKELISRGYR [W380A]
5 | disrupting interaction | MANSLDRLREHLKNGDKLVLKNNEGQSTDDITKATMVETLSSDGSTQDSFPLNEETEIEIDGSLVQLRIIVHCWMNKDSSAADYLADCQNKQLTNVSFLQRTDLINWLSGNTESSQYLKAPGQKGETSDKVDIENKTLAGELSTVKSTTSASLENDSEVSDPVVVETMKHERILVDHNSALRGAKPINFGYLIKDAELKLVQSIKGSLRGSKLPPGHKGAHGRISKTNGSSGGPRKDPIILIPSAASSILTVANIKQFLLESKYVNPRNLPSVPNGLVNIEKNFERISRPIRFIIVDNTRMFTKPEYWDRVVAIFTTGHTWQFNNYQWNSPQELFQRCKGYYFHFAGDSVPQHVQQANVEKVELDKNKRFKDVEVVRYFWHSLEKELISRGYR [W357A]
